Reference: patent US20260049134A1 (UNIVERSITY OF FLORIDA RESEARCH FOUNDATION, published 2026)

Legend:
[1] = molecular target: T1, PTPRG, endogenous in H929 multiple myeloma cells (human, UniProt P23470 20-1445); assay: flow cytometry, H929 + vehicle; None 513
T1 construct: Native protein on H929 cells (flow cytometry, siRNA knockdown) and in H929 lysates (IP/MS); also called phosphatase receptor type γ

[2] = molecular target: T1, PTPRG, endogenous in H929 multiple …; assay: flow cytometry, H929 + vehicle; None 2.74
[3] = molecular target: T2, CADM1-His (Acro Biosystems) (human, UniProt Q9BY67 45-374); assay: ELISA on coated CADM1-His
T2 construct: Bought; also called CADM1/IGSF4A; not shown: His tag of the bought protein
T2 sequence: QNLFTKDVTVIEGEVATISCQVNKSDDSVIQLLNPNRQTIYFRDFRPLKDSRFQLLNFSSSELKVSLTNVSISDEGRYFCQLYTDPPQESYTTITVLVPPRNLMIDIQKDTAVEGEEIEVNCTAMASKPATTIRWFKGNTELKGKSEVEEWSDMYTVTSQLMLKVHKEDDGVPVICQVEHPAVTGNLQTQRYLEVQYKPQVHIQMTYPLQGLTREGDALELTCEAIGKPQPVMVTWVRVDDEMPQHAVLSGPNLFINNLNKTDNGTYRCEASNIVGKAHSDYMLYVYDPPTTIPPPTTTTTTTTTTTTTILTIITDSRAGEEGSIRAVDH
Method: Recombinant purified ECDs (50-150 ng) of each putative target protein were coated, incubated with 150 ng of the indicated primary antibody, and binding was detected using a peroxidase-conjugated anti-human Fab secondary antibody. Heatmap represents averages of technical triplicates. (8B) Target validation via siRNA knockdown. H929 cells were transfected with siRNA pools targeting the putative antibody targets ICAM1, CADM1, and PTPRG. Cells were then subjected to cognate IgG binding analysis via flow cytometry. (NT, non-targeting siRNA).
ELISA ELISA was conducted as described previously. Briefly, 50-150 ng of antigen was coated overnight in half-area 96-well plates at 4° C., blocked with 3% BSA at 37° C. for 1 h, and 150 ng of chimeric rabbit/human IgG1 was added, incubating for 2 h at 37° C. […] After incubating at 37° C. for 15 min-1 h (depending on intensity of controls), data were acquired using a SpectraMax M5 plate reader (Molecular Devices).

[4] = molecular target: T1, PTPRG, endogenous in H929 multiple …; assay: flow cytometry, H929 + NT Green siRNA; None 1.35
[5] = molecular target: T3, GARS, endogenous in H929 multiple myeloma cells (human, UniProt P41250 37-739, limits assumed); assay: flow cytometry, H929 + ICAM1 siRNA; None 455; surface target GARS putative
T3 construct: Native protein pulled down from H929 lysates; also called Glycyl-tRNA synthetase; GlyRS
T3 sequence: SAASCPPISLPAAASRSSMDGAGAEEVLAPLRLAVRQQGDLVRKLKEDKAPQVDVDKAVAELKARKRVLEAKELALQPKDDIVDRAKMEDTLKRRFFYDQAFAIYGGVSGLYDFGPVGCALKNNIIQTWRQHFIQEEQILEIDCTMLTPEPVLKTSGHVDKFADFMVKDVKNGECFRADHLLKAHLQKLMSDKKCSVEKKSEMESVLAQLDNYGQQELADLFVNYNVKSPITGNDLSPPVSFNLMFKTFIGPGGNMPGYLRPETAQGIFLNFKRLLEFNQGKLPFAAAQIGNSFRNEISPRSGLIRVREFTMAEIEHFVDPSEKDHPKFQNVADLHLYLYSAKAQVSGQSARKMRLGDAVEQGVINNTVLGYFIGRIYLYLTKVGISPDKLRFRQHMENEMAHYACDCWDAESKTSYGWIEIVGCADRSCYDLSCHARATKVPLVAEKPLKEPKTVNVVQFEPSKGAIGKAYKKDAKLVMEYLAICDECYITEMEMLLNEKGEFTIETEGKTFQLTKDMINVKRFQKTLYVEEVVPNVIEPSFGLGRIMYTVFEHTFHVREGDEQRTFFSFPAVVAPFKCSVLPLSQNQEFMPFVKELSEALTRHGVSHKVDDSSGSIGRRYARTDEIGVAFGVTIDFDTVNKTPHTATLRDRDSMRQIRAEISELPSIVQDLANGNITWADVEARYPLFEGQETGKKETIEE

[6] = molecular target: T3, GARS, endogenous in H929 multiple …; assay: flow cytometry, H929 + PTPRG siRNA; None 490; surface target GARS putative
[7] = molecular target: T3, GARS, endogenous in H929 multiple …; assay: flow cytometry, H929 + NT Green siRNA; None 1.35; surface target GARS putative
[8] = molecular target: T3, GARS, endogenous in H929 multiple …; assay: flow cytometry, H929 + NT Green siRNA; None 416; surface target GARS putative

T1 sequence (P23470 20-1445 limits assumed): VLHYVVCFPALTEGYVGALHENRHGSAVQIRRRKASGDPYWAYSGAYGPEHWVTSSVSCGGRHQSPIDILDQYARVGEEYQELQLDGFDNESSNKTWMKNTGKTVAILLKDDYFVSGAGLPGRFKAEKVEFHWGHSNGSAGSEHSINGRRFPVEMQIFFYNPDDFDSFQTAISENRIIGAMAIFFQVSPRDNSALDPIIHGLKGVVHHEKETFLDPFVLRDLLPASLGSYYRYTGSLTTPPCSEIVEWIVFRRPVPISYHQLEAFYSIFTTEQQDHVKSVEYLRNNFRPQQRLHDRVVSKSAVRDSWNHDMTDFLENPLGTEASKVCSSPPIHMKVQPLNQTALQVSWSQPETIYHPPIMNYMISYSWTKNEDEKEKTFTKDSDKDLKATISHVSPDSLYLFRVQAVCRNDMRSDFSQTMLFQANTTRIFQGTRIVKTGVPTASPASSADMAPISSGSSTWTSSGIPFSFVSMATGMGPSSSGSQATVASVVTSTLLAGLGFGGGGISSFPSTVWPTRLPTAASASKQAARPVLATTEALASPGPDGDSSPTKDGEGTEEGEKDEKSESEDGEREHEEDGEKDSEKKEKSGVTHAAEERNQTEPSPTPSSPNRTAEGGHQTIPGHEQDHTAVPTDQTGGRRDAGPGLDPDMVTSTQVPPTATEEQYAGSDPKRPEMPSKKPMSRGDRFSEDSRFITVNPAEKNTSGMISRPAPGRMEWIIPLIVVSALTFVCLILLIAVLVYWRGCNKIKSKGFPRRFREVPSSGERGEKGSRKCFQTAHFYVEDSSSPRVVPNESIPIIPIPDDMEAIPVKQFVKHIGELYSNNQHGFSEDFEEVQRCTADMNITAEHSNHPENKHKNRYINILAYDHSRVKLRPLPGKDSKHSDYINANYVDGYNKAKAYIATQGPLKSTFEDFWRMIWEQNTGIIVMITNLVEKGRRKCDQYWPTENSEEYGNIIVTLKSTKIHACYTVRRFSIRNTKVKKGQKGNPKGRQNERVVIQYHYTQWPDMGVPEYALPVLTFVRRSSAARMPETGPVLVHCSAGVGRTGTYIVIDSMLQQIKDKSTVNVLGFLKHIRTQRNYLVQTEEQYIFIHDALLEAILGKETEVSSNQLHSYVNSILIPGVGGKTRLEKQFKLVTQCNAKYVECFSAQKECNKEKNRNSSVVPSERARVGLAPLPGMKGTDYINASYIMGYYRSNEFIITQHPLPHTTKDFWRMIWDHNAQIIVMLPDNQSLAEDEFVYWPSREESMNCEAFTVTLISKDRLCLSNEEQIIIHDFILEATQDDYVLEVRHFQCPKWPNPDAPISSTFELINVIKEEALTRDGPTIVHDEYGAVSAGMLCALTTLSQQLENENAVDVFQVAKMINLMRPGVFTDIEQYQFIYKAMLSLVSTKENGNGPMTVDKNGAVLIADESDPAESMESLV

Row | Binder | mAb binding (MFI) [1] | Cells stained (%) [2] [%] | binding result [3] | Cells stained (%) [4] [%] | mAb binding (MFI) [5] | mAb binding (MFI) [6] | Cells stained (%) [7] [%] | mAb binding (MFI) [8]
1 | TH9-0022 (antibody, human IgG1, kappa, L234A L235A, V domains shown, also called TH9-022; negative control) VH: QSLEESGGRLVTPGTPLTLTCTVSGFSLSSYAMNWVRQAPGKGLEWIGIINSYGSTYYASWAKGRFTISKTSTTVDLKITSPTTEDTATYFCARVTYDSYGYGYAPYGMDLWGPGTLVTVSS VL: LVMTQTPSSTSNAVGGTVTIKCQASQSIGNVLAWYQQKPGQPPKLLIYAASTLASGVPSRVGGSRSGTEYTLTISGVQREDAATYYCLGSDSDSDIAFGGGTELEILR | 595 | 2.62 | no binding (tested: 150 ng IgG1 per well) | 1.86 | – | – | – | –
2 | HW-42 chimeric rabbit-human IgG1 LA/LA/PG (antibody, V domains shown, Fc-silenced (L234A/L235A/P329G) IgG1, lambda; Alexa Fluor 647-labeled in single-step flow cytometry; Cluster C-1) VH: QSVKESEGGLFKPADTLTLTCTVSGFSLSSNEISWVRQAPGEGLEYIGIIDTGGRAYYAVWARSRSTITRNTNLNTVTLKMTSLTAADTATYFCARGGVDTEWYAFSSWGPGTLVTVPS VL: SFVLTQPASVQVNLGQTVSLTCTADTLSRRYASWYQQKPGQAPVLLIFRDTSRPSGVPDRFSGSSSGDTATLTISGAQAGDEADYYCATSDGSGSNYQYVFGGGTQLTVTG | 8320 | 97.5 | no binding (tested: 150 ng IgG1 per well) | 97.2 | – | – | – | –
3 | HW-70 chimeric rabbit-human IgG1 LA/LA/PG (antibody, V domains shown, Fc-silenced (L234A/L235A/P329G) IgG1, lambda; Alexa Fluor 647-labeled in single-step flow cytometry; Cluster C-1) VH: QSLEESGGRLVTPGTPLTLTCTVSGFSLSSNAMSWVRQAPGKGLEWIGTIDGYGYTYYASWAKGRFTVSKTSTTVDLKITSPTTEDTATYFCAREIYLGSNFWGPGTLVTISS VL: SFVLTQPASVQVNLGQTVSLTCTADTLSRRYASWYQQKPGQAPVLLIYRDTSRPSGVPDRFSGSSSGNTATLTISGAQAGDEADYYCATADGSGSSYQFVFGGGTQLTVTG | 12300 | 98.6 | no binding (tested: 150 ng IgG1 per well) | 98.9 | – | – | – | –
4 | HW-25 chimeric rabbit-human IgG1 LA/LA/PG (antibody, V domains shown, Fc-silenced (L234A/L235A/P329G) IgG1, lambda; Alexa Fluor 647-labeled in single-step flow cytometry; Cluster C-1) VH: QSLEESGGRLVTPGTPLTLTCTVSGFSLSSYAMGWVRQAPGKGLEWIGIIDSRGSTYYATWAKGRFTISKTSTTVDLKITSPTTEDTATYFCAREDSYYYDSFNLWGPGTLVTVSS VL: SFVLTQPASVQVNLGQTVSLTCTADTLSRRYASWYQQKPGQAPVLLIYRDTSRPSGVPDRFSGSSSGNTATLTISGAQAGDEADYYCATSDGSGSSYQCVFGGGTQLTVTG | 7560 | 97.2 | no binding (tested: 150 ng IgG1 per well) | 95.7 | – | – | – | –
5 | HW-1 chimeric rabbit-human IgG1 LA/LA/PG (antibody, V domains shown, Fc-silenced (L234A/L235A/P329G) IgG1, lambda; Alexa Fluor 647-labeled in single-step flow cytometry; Prototype of cluster C-1) VH: QSLEESGGGLFKPTDTLTLTCTASGFSLGSSYAISWVRQAPGKELEWIGTIDSGRAYYARWAKSRSTITRNTNENTVTLKMTSLTAADTATYFCARDLIPTYSQDIWGPGTLVTISS VL: SFVLTQPASVQVNLGQTVSLTCTADTLSRRYASWYQQKPGQAPVLLIYRDTSRPSGVPDRFSGSSSGNTATLTISGAQAGDEADYYCATSDGSGNSYQYVFGGGTQLTVTS | 15000 | 99.4 | – | 99.4 | – | – | – | –
6 | HW-17 chimeric rabbit-human IgG1 LA/LA/PG (antibody, V domains shown, Fc-silenced (L234A/L235A/P329G) IgG1, lambda; Alexa Fluor 647-labeled in single-step flow cytometry; Cluster C-1) VH: QSLGESRGRLVTPDETLTLTCTVSGIDLSSNAMSWVRQAPGEGLEWIGTINTGGRAYYASWAKGRFTISRTSTTVDLKMTSLTTEDTATYFCARERYSDGRAYDIWGPGTLVTISS VL: SFVLTQPASVQVNLGQTVSLTCTADTLSRRYASWYQQKPGQAPVLLIYTDSNRPSGIPDRFSGSSSGNTATLTISGAQAGDEADYYCATDDGSGSIYQYVFGGGTQLTVTG | 15700 | 99.3 | – | 99 | – | – | – | –
7 | HW-8 chimeric rabbit-human IgG1 LA/LA/PG (antibody, V domains shown, Fc-silenced (L234A/L235A/P329G) IgG1, kappa; Alexa Fluor 647-labeled in single-step flow cytometry; Cluster C-45) VH: QSLEESGGRLVTPGTPLTLTCTVSGFSLSSYAMSWVRQAPGKGLEWIGAISTGGSTTYASWAKGRFTISKTSSTTVDLKMTSLTTEDTATYFCVRHFRLWGPGTLVTISS VL: QVLTQTPSSVSAAVGGTVTIKCQASQSIGSALAWFQQKPGQRPKLLIYRASNLASGVPSRFKGSGSGTEFALTISGVQREDAATYYCLGGAAAVWAFGAGTNVEIKR | – | – | – | – | 11400 | 13600 | 86.6 | 15500
8 | HW-28 chimeric rabbit-human IgG1 LA/LA/PG (antibody, V domains shown, Fc-silenced (L234A/L235A/P329G) IgG1, lambda; Alexa Fluor 647-labeled in single-step flow cytometry; Cluster C-45) VH: QKQLVESGGRLVTPGTPLTLTCTASGFSLSSNAMSWVRQAPGEGLQWIGTISSGGSTYYASWAKGRFTISKTSTTVTLKMTSLTTEDTATYFCARGADLHRLWGPGTLVTVSS VL: SFVLTQPASVQVNLGQTVSLTCTGKPLSRSFASWYQQKPGQAPVLVIYRDTSRPSGVPDRFSGSSSGNTATLTISGAQAGDEADYYCATSDGSGSSYQYVFGGGTQLTVTG | – | – | – | – | 33900 | 41900 | 98.5 | 50700
9 | HW-56 chimeric rabbit-human IgG1 LA/LA/PG (antibody, V domains shown, Fc-silenced (L234A/L235A/P329G) IgG1, kappa; Alexa Fluor 647-labeled in single-step flow cytometry; Cluster C-45) VH: QSVKESEGGLFKPTDTLTLTCTASGFTVSTNAVTWVRQAPGNGLEYIGTIGRSGSAYFASWAKRRSTLTRDINLNTVTLKMTSLTAADTATYFCVRGSPGYRTAISIWGPGTLVTISS VL: AVMTQTPSSTSAAVEGTVTINCQASQSISNRLSWFQQKPGQPPKLLIYQASTLASGVPSRFKGSGSGTEFTLTISGVQREDAATYYCLGSYSSSDASFGGGTKLEIKR | – | – | no binding (tested: 150 ng IgG1 per well) | – | 497000 | 479000 | 99.7 | 499000
10 | HW-81 chimeric rabbit-human IgG1 LA/LA/PG (antibody, V domains shown, Fc-silenced (L234A/L235A/P329G) IgG1, lambda; Alexa Fluor 647-labeled in single-step flow cytometry; Cluster C-45) VH: QKQLVESGGGLVTPGGTLTLTCTVSGFSLSSNGVSWVRQAPGKGLEYIGLIRSIGSTYYATWAKGRFTISKTSTTVDLKITSPTTEDTATYFCARGGYRNGFKLWGPGTLVTVSS VL: QPVLTQSPSVSAALGASAKLTCTLSSAHKTYYIEWYQQQHPGKAPRYLMQLQSDGSYTKGTGVPDRFSGSSSGADRYLIISSVQAEDEADYICGVIDSAVYVFGGGTQLTVTG | – | – | no binding (tested: 150 ng IgG1 per well) | – | 640000 | 630000 | 99.7 | 693000
11 | HW-45 chimeric rabbit-human IgG1 LA/LA/PG (antibody, V domains shown, Fc-silenced (L234A/L235A/P329G) IgG1, lambda; Alexa Fluor 647-labeled in single-step flow cytometry; Prototype of cluster C-45) VH: QKQLVESGGRLVTPGTPLTLTCTVSGFSLSSYAMGWFRQAPGKGLEWIGIINSYGSTYYASWAKGRFTISKTSTTVDLKITSPTTEDTATYFCGRRIGSARFDPWGPGTLVTVSS VL: SFVLTQPASVQVNLGQTVSLTCTADTLSRSYASWYQQKPGQAPVLLIYRDTRRPSGVPDRFSGSSSGNTATLTISGAQAGDEADYYCATSDGSGSSYRLVFGGGTQLTVTG | – | – | – | – | 20800 | 23200 | 97.9 | 29500
